Where two headings read alike, the source gives them in different places. Starred links: 1 amine or outer side, 2 acyl side, 3 side chain; linkers in the order of their positions; H or OH if unused. Non-standard residues stand in square brackets, D forms with d. Groups on a side chain read outwards from the residue. No end group written: not given here. *: point of attachment. γGlu = O=C(O)[C@H](CCC(=O)[*:2])N[*:1]; Palmitoyl = CCCCCCCCCCCCCCCC(=O)*; NMeF = CN[C@@H](Cc1ccccc1)C(=O)O; 125I = [125I]*
Assays:
kappa-opioid receptor [1] = biological target: T1, kappa-opioid receptor (UniProt P41145 1-380)
[2] = biological target: T2, neuropeptide Y receptor Y5 (UniProt Q15761 1-445)
T2 sequence (looked up): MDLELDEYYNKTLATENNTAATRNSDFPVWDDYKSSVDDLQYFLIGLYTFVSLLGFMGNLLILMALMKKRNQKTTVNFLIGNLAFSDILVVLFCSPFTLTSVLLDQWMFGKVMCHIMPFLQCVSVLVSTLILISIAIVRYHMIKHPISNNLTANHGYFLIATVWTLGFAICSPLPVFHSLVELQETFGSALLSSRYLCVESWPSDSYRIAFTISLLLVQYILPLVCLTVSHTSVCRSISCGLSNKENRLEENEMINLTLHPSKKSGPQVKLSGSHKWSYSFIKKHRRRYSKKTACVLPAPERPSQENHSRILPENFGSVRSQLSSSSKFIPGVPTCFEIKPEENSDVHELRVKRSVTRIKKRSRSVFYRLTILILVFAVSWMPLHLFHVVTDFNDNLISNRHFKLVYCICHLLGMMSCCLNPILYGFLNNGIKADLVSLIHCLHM

ghrelin receptor [3] = biological target: T3, ghrelin receptor (UniProt Q92847 1-366)
GPR10 [4] = biological target: T4, GPR10 (human, UniProt P49683 1-370)
T4 sequence (looked up): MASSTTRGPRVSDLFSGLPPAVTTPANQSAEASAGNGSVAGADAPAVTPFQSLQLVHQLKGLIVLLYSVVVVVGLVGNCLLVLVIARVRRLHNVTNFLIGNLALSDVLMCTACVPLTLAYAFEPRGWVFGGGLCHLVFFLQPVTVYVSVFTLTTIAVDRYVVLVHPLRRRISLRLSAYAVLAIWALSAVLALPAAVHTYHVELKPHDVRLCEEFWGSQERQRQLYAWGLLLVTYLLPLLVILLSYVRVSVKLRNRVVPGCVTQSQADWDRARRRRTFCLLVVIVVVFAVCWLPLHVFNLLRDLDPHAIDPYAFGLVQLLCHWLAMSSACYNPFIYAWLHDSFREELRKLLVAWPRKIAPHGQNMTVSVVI

[5] = biological target: T5, neuropeptide Y receptor Y2 (UniProt P49146 1-381); experiment: radioligand binding; competition with 0.1 nM [^125I]-PYY on U2OS cells with Y1, Y2 or Y5; 25 mM HEPES, 120 mM NaCl, 5 mM MgCl2, 4.7 mM KCl, 1 mM CaCl2, 0.5% BSA, 2 g/L glucose; peptides 10^-12 to 10^-5 M; 60 min at RT; Ki by the Cheng-Prusoff equation
T5 construct: receptor of NPY, Y2; source: U2OS cells stably expressing the receptor, bought: Thermo Fisher Scientific; on cells
T5 sequence (looked up): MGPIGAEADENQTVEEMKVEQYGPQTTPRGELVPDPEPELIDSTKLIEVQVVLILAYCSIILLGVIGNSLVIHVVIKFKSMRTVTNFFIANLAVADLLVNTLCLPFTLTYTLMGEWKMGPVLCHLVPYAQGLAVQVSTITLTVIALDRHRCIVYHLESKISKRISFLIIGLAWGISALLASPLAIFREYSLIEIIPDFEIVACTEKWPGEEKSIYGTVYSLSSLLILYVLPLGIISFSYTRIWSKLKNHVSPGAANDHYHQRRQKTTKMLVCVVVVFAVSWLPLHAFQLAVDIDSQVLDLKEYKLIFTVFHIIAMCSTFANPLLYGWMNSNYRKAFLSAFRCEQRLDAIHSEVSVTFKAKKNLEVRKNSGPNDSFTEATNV

kappa-opioid receptor [6] = biological target: T1, kappa-opioid receptor; experiment: radioligand binding; saturation with [^125I]-dynorphin on KOR
ghrelin receptor [7] = biological target: T3, ghrelin receptor; experiment: radioligand binding; saturation with [^125I]-ghrelin on GHSR
NPFF-R1 [8] = biological target: T6, NPFF-R1 (UniProt Q9GZQ6 1-430); experiment: radioligand binding; competition with [^125I]-1DMe on plasma membranes of CHO-K1 cells with NPFF-R2 or NPFF-R1, 5 µg protein/tube; 50 mM Tris-HCl pH 7.4, 60 mM NaCl, 1 mM MgCl2, 0.5% BSA; 60 min at RT; filtration; Ki by the Cheng-Prusoff equation; conditions: one partner purified
T6 construct: also called NPFF-1R; source: CHO-K1 cell line, bought: Perkin Elmer

NPFF-R2 = biological target: T7, NPFF-R2 (UniProt Q9Y5X5 1-522); experiment: as above; conditions: one partner purified
T7 construct: also called NPFF-2R; source: CHO-K1 cell line (AequoScreen), bought: Perkin Elmer

kappa-opioid receptor [9] = biological target: T1, kappa-opioid receptor; experiment: radioligand binding; competition with [^125I]-dynorphin A on plasma membranes of CHO-K1 cells with KOR, 5 µg protein/tube; 50 mM Tris-HCl pH 7.4, 60 mM NaCl, 1 mM MgCl2, 0.5% BSA; 60 min at RT; filtration; Ki by the Cheng-Prusoff equation; conditions: one partner purified
kappa-opioid receptor [10] = biological target: T1, kappa-opioid receptor; experiment: cell-based or functional assay
[11] = biological target: T2, neuropeptide Y receptor Y5; experiment: cell-based or functional assay
ghrelin receptor [12] = biological target: T3, ghrelin receptor; experiment: cell-based or functional assay
GPR10 [13] = biological target: T4, GPR10; experiment: cell-based or functional assay
GPR10 [14] = biological target: T4, GPR10; experiment: radioligand binding; competition with [^125I]-PrRP31 on CHO-K1 cells expressing human GPR10; Ki by the Cheng-Prusoff equation; conditions: one partner purified
[15] = biological target: T8, neuropeptide Y receptor Y1 (UniProt P25929 1-384); experiment: radioligand binding; competition with 0.1 nM [^125I]-PYY on U2OS cells with Y1, Y2 or Y5; 25 mM HEPES, 120 mM NaCl, 5 mM MgCl2, 4.7 mM KCl, 1 mM CaCl2, 0.5% BSA, 2 g/L glucose; peptides 10^-12 to 10^-5 M; 60 min at RT; Ki by the Cheng-Prusoff equation; conditions: one partner purified
T8 construct: receptor of NPY, Y1; source: U2OS cells stably expressing the receptor, bought: Thermo Fisher Scientific; on cells
T8 sequence (looked up): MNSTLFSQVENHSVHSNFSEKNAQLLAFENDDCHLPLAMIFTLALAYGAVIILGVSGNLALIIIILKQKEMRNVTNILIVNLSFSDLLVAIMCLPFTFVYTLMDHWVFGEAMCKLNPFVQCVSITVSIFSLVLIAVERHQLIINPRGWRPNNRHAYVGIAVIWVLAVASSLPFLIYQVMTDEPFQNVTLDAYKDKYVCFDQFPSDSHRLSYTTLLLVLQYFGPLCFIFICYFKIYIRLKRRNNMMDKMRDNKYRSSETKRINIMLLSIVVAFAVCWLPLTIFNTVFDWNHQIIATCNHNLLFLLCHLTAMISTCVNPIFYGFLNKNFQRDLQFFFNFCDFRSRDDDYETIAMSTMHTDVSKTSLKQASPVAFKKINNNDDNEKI

[16] = biological target: T2, neuropeptide Y receptor Y5; experiment: as above; conditions: one partner purified
ghrelin receptor [17] = biological target: T3, ghrelin receptor; experiment: radioligand binding; competition with 0.1 nM [^125I]-ghrelin on U2OS cells stably expressing GHSR; 50 mM Tris-Cl pH 7.4, 118 mM NaCl, 5 mM MgCl2, 4.7 mM KCl, 0.1% BSA; peptides 10^-12 to 10^-5 M; 60 min at RT; Ki by the Cheng-Prusoff equation; conditions: one partner purified
NPFF-R1 [18] = biological target: T6, NPFF-R1; experiment: radioligand binding; saturation with [^125I]-1DMe on membranes from CHO-K1 cells expressing NPFF-R1; conditions: one partner purified

Palm-PrRP31 (peptide)
EC50, agonist mode, β-lactamase reporter assay (kappa-opioid receptor [1]): > 10000 nM
EC50, agonist mode, β-lactamase reporter assay [2]: 56.5 nM
EC50, agonist mode, β-lactamase reporter assay (ghrelin receptor [3]): 1270 nM
EC50, agonist mode, β-lactamase reporter assay (GPR10 [4]): 0.0718 nM
Ki [5]: > 10000 nM

[^125I]-dynorphin A (peptide)
Kd (kappa-opioid receptor [6]): 2.38 nM

[^125I]-ghrelin (peptide)
Kd (ghrelin receptor [7]): 0.44 nM

B1: Palm^11-PrRP31 (peptide)
peptide: SRTHRHSMEIK([γGlu-Palmitoyl])TPDINPAWYASRGIRPVGRF-NH2
notes: analog of human PrRP31 with Arg11 replaced by Lys11 that carries palmitic acid through a gamma-Glu linker; numbers count on: the peptide PrRP31; source: synthetic peptide, palmitoylated on resin, purified (HPLC, purity greater than 95%)
Ki (NPFF-R1 [8]): 13.5 nM
Ki (NPFF-R2): 7.66 nM
Ki (kappa-opioid receptor [9]): 4280 nM
EC50, agonist mode, β-lactamase reporter assay (kappa-opioid receptor [10]): > 10000 nM
EC50, agonist mode, β-lactamase reporter assay [11]: 583 nM
EC50, agonist mode, β-lactamase reporter assay (ghrelin receptor [12]): 1070 nM
EC50, agonist mode, β-lactamase reporter assay (GPR10 [13]): 0.0391 nM
Ki (GPR10 [14]): 3.44 nM
Ki [15]: > 10000 nM
Ki [16]: 362 nM
Ki ([5]; one partner purified): > 10000 nM
Ki (ghrelin receptor [17]): 2800 nM

B2: [^125I]-1DMe (peptide)
peptide: [dY](125I)L[NMeF]QPQRF-NH2
notes: 1DMe iodinated at D-Tyr1; numbers count on: the peptide
Kd (NPFF-R1 [18]): 0.94 nM

Reference: PMC8396344, “Palmitoylation of Prolactin-Releasing Peptide Increased Affinity for and Activation of the GPR10, NPFF-R2 and NPFF-R1 Receptors: In Vitro Study” (International Journal of Molecular Sciences, 2021)
